Assay results: PMC5874916

Experiments:
[1] = molecular target: purified recombinant eEF1A1 (OriGene), biotinylated (UniProt P68104); test: BLI; Octet Red; biotinylated eEF1A1 immobilised on streptavidin-coated biosensors, 90 nM RTp51/p66 heterodimer; kinetic buffer 1 mM phosphate, 15 mM NaCl, 0.002% Tween 20, 0.1 mg/ml gelatin
[2] = molecular target: purified recombinant eEF1A1 (OriGene), biotinylated (UniProt P68104); test: BLI; conditions: biotinylated eEF1A immobilized on a streptavidin-coated biosensor, 90 nM RT heterodimer, E300R in both RTp51 and RTp66 subunits
[3] = molecular target: HaloTag-eEF1A (UniProt P68104); test: FRET or BRET; NanoBRET in HEK293T cells cotransfected with 5 ng RTp66-NanoLuc (donor) and 500 ng HaloTag-eEF1A (acceptor), HaloTag NanoBRET 618 Ligand; BRET ratio of the RSV P-NanoLuc control subtracted, normalized to WT RT
HaloTag-eEF1A, sequence (P68104 whole entry): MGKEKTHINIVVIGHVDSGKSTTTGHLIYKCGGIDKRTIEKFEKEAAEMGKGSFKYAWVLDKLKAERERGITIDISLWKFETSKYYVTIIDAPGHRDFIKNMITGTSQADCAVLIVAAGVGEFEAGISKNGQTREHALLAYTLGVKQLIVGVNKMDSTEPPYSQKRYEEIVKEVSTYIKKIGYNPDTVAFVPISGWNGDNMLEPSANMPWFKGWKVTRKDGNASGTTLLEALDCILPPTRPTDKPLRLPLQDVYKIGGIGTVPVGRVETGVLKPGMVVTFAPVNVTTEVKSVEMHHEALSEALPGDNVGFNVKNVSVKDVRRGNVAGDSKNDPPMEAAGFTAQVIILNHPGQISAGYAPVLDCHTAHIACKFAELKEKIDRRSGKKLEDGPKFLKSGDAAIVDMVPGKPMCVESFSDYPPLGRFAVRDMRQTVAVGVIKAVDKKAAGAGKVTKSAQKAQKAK

[4] = molecular target: HaloTag-eEF1A (UniProt P68104); test: NanoBRET; conditions: HEK293T cells cotransfected; n = 3; parent: est. 100; read off a plot
[5] = molecular target: HIV-1 reverse transcriptase (Human immunodeficiency virus 1) (UniProt O93215); conditions: cited from earlier work

purified recombinant eEF1A1 (OriGene), biotinylated, sequence (P68104 whole entry): as above
eEF1A, sequence (P68104 2-462): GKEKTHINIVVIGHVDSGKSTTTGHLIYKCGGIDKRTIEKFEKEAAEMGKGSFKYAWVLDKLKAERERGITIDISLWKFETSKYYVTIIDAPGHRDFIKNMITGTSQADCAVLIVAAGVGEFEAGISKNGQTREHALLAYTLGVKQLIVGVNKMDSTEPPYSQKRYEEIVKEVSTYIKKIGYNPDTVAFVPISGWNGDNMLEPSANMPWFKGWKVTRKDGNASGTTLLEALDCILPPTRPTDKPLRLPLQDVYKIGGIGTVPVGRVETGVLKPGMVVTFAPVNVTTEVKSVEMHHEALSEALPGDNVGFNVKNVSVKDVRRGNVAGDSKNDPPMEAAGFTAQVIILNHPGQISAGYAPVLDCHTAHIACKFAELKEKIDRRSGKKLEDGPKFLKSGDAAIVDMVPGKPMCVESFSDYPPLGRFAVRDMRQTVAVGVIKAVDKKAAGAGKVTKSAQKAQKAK

Substance: 6xHis-tagged E300R mutant RTp51/p66 heterodimer purified from E. coli (complex)
- fold change of koff against the WT heterodimer [1]: 3 fold
- fold weaker binding affinity (KD) than the WT heterodimer [1]: 3 fold

Substance: 6xHis-tagged WT RTp51/p66 heterodimer purified from E. coli (from UniProt P04585) E300R
- Kd ([2]; parent: 3.4787 ± 0.079): 10.3 nM
- koff ([2]; parent: 4.75E-4 ± 2.5E-5): 0.00139 s⁻¹
- kon ([2]; parent: 136350 ± 4150): 135000 1/MS

Substance: HIV-1 RTp66-NanoLuc, D250R (enzyme)
- percent reduction of the BRET ratio against WT RT [3]: 33%

Substance: HIV-1 RTp66-NanoLuc, E297R (enzyme)
- percent reduction of the BRET ratio against WT RT [3]: 20%

Substance: HIV-1 RTp66-NanoLuc, E298R (enzyme)
- percent reduction of the BRET ratio against WT RT [3]: 40%

Substance: HIV-1 RTp66-NanoLuc, E300R (enzyme)
- percent reduction of the BRET ratio against WT RT [3]: 70%

Substance: HIV-1 RTp66-NanoLuc, wild type L303A
- percent of parent [4]: 43 % WT

Substance: eEF1A (from UniProt P68104)
- Kd [5]: 3.5 nM
